Numbered stars: 1 amine (or outer) side, 2 acyl side, 3 side chain; on linkers, the order of the positions; unused ones are H or OH. Bridge positions count the residues as written; N and C are the ends. Square brackets hold non-standard residues; d marks the D form. Side chains are listed from the residue outwards. Ends that are not written are not given here. * marks the point of attachment. C18 diacid = O=C(O)CCCCCCCCCCCCCCCCC(=O)*; γGlu = O=C(O)[C@H](CCC(=O)[*:2])N[*:1]; AEEA = NCCOCCOCC(=O)O; Aib = CC(C)(N)C(=O)O
T1: human calcitonin receptor (human, UniProt P30988 25-474)
T1 sequence (looked up): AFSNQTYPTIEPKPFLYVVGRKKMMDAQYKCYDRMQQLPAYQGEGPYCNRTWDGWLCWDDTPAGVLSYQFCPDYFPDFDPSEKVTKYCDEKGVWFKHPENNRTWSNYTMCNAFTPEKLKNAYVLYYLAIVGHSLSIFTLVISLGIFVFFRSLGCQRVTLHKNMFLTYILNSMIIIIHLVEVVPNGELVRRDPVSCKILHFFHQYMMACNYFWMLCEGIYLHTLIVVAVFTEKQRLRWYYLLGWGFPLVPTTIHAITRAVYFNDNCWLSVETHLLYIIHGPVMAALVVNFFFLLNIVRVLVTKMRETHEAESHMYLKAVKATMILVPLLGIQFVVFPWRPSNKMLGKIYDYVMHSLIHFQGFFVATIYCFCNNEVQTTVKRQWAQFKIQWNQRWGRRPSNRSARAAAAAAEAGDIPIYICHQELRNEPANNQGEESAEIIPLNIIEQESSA

T2: human amylin receptor (calcitonin receptor co-expressed with receptor activity modifying protein, RAMP3) (human, UniProt P30988 25-474; O60896 24-148)
T2 sequence (looked up) 1: T1 sequence (looked up)
T2 sequence (looked up) 2: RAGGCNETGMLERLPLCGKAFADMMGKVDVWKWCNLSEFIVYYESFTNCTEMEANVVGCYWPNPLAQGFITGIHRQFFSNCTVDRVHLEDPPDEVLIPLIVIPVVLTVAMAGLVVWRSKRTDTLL

B1: Peptide 42 (SEQ ID NO: 42) (peptide)
peptide: K([γGlu-C18 diacid])KCNTATCATQRLANFLVHSS[Aib]NFGPILPPTNVGSETY-NH2
modifications: disulfide 3-8; N-terminus assumed
SMILES: CC[C@H](C)[C@H](NC(=O)[C@@H]1CCCN1C(=O)CNC(=O)[C@H](Cc1ccccc1)NC(=O)[C@H](CC(N)=O)NC(=O)C(C)(C)NC(=O)[C@H](CO)NC(=O)[C@H](CO)NC(=O)[C@H](Cc1c[nH]cn1)NC(=O)[C@@H](NC(=O)[C@H](CC(C)C)NC(=O)[C@H](Cc1ccccc1)NC(=O)[C@H](CC(N)=O)NC(=O)[C@H](C)NC(=O)[C@H](CC(C)C)NC(=O)[C@H](CCCNC(=N)N)NC(=O)[C@H](CCC(N)=O)NC(=O)[C@@H](NC(=O)[C@H](C)NC(=O)[C@@H]1CSSC[C@H](NC(=O)[C@H](CCCCN)NC(=O)[C@@H](N)CCCCNC(=O)CC[C@H](NC(=O)CCCCCCCCCCCCCCCCC(=O)O)C(=O)O)C(=O)N[C@@H](CC(N)=O)C(=O)N[C@@H]([C@@H](C)O)C(=O)N[C@@H](C)C(=O)N[C@@H]([C@@H](C)O)C(=O)N1)[C@@H](C)O)C(C)C)C(=O)N[C@@H](CC(C)C)C(=O)N1CCC[C@H]1C(=O)N1CCC[C@H]1C(=O)N[C@H](C(=O)N[C@@H](CC(N)=O)C(=O)N[C@H](C(=O)NCC(=O)N[C@@H](CO)C(=O)N[C@@H](CCC(=O)O)C(=O)N[C@H](C(=O)N[C@@H](Cc1ccc(O)cc1)C(N)=O)[C@@H](C)O)C(C)C)[C@@H](C)O
B2: Peptide 5 (SEQ ID NO: 5) (peptide)
peptide: K([γGlu-γGlu-C18 diacid])CNTATCATQRLANFLVHSSNNFGPILPPTNVGSNTY-NH2
modifications: disulfide 2-7
B3: Peptide 37 (SEQ ID NO: 37) (peptide)
peptide: K([γGlu-C18 diacid])KCNTATCATQRLANFLSHSS[Aib]NFGPILPPTNVGSNTY-NH2
modifications: disulfide 3-8; N-terminus assumed
SMILES: CC[C@H](C)[C@H](NC(=O)[C@@H]1CCCN1C(=O)CNC(=O)[C@H](Cc1ccccc1)NC(=O)[C@H](CC(N)=O)NC(=O)C(C)(C)NC(=O)[C@H](CO)NC(=O)[C@H](CO)NC(=O)[C@H](Cc1c[nH]cn1)NC(=O)[C@H](CO)NC(=O)[C@H](CC(C)C)NC(=O)[C@H](Cc1ccccc1)NC(=O)[C@H](CC(N)=O)NC(=O)[C@H](C)NC(=O)[C@H](CC(C)C)NC(=O)[C@H](CCCNC(=N)N)NC(=O)[C@H](CCC(N)=O)NC(=O)[C@@H](NC(=O)[C@H](C)NC(=O)[C@@H]1CSSC[C@H](NC(=O)[C@H](CCCCN)NC(=O)[C@@H](N)CCCCNC(=O)CC[C@H](NC(=O)CCCCCCCCCCCCCCCCC(=O)O)C(=O)O)C(=O)N[C@@H](CC(N)=O)C(=O)N[C@@H]([C@@H](C)O)C(=O)N[C@@H](C)C(=O)N[C@@H]([C@@H](C)O)C(=O)N1)[C@@H](C)O)C(=O)N[C@@H](CC(C)C)C(=O)N1CCC[C@H]1C(=O)N1CCC[C@H]1C(=O)N[C@H](C(=O)N[C@@H](CC(N)=O)C(=O)N[C@H](C(=O)NCC(=O)N[C@@H](CO)C(=O)N[C@@H](CC(N)=O)C(=O)N[C@H](C(=O)N[C@@H](Cc1ccc(O)cc1)C(N)=O)[C@@H](C)O)C(C)C)[C@@H](C)O
B4: Peptide 36 (SEQ ID NO: 36) (peptide)
peptide: K([γGlu-C18 diacid])KCNTATCATQRLANFL[Aib]HSS[Aib]NFGPILPPTNVGSNTY-NH2
modifications: disulfide 3-8; N-terminus assumed
SMILES: CC[C@H](C)[C@H](NC(=O)[C@@H]1CCCN1C(=O)CNC(=O)[C@H](Cc1ccccc1)NC(=O)[C@H](CC(N)=O)NC(=O)C(C)(C)NC(=O)[C@H](CO)NC(=O)[C@H](CO)NC(=O)[C@H](Cc1c[nH]cn1)NC(=O)C(C)(C)NC(=O)[C@H](CC(C)C)NC(=O)[C@H](Cc1ccccc1)NC(=O)[C@H](CC(N)=O)NC(=O)[C@H](C)NC(=O)[C@H](CC(C)C)NC(=O)[C@H](CCCNC(=N)N)NC(=O)[C@H](CCC(N)=O)NC(=O)[C@@H](NC(=O)[C@H](C)NC(=O)[C@@H]1CSSC[C@H](NC(=O)[C@H](CCCCN)NC(=O)[C@@H](N)CCCCNC(=O)CC[C@H](NC(=O)CCCCCCCCCCCCCCCCC(=O)O)C(=O)O)C(=O)N[C@@H](CC(N)=O)C(=O)N[C@@H]([C@@H](C)O)C(=O)N[C@@H](C)C(=O)N[C@@H]([C@@H](C)O)C(=O)N1)[C@@H](C)O)C(=O)N[C@@H](CC(C)C)C(=O)N1CCC[C@H]1C(=O)N1CCC[C@H]1C(=O)N[C@H](C(=O)N[C@@H](CC(N)=O)C(=O)N[C@H](C(=O)NCC(=O)N[C@@H](CO)C(=O)N[C@@H](CC(N)=O)C(=O)N[C@H](C(=O)N[C@@H](Cc1ccc(O)cc1)C(N)=O)[C@@H](C)O)C(C)C)[C@@H](C)O
B5: Peptide 39 (SEQ ID NO: 39) (peptide)
peptide: K([γGlu-C18 diacid])KCNTATCATQRLANFLEHSS[Aib]NFGPILPPTNVGSNTY-NH2
modifications: disulfide 3-8; N-terminus assumed
SMILES: CC[C@H](C)[C@H](NC(=O)[C@@H]1CCCN1C(=O)CNC(=O)[C@H](Cc1ccccc1)NC(=O)[C@H](CC(N)=O)NC(=O)C(C)(C)NC(=O)[C@H](CO)NC(=O)[C@H](CO)NC(=O)[C@H](Cc1c[nH]cn1)NC(=O)[C@H](CCC(=O)O)NC(=O)[C@H](CC(C)C)NC(=O)[C@H](Cc1ccccc1)NC(=O)[C@H](CC(N)=O)NC(=O)[C@H](C)NC(=O)[C@H](CC(C)C)NC(=O)[C@H](CCCNC(=N)N)NC(=O)[C@H](CCC(N)=O)NC(=O)[C@@H](NC(=O)[C@H](C)NC(=O)[C@@H]1CSSC[C@H](NC(=O)[C@H](CCCCN)NC(=O)[C@@H](N)CCCCNC(=O)CC[C@H](NC(=O)CCCCCCCCCCCCCCCCC(=O)O)C(=O)O)C(=O)N[C@@H](CC(N)=O)C(=O)N[C@@H]([C@@H](C)O)C(=O)N[C@@H](C)C(=O)N[C@@H]([C@@H](C)O)C(=O)N1)[C@@H](C)O)C(=O)N[C@@H](CC(C)C)C(=O)N1CCC[C@H]1C(=O)N1CCC[C@H]1C(=O)N[C@H](C(=O)N[C@@H](CC(N)=O)C(=O)N[C@H](C(=O)NCC(=O)N[C@@H](CO)C(=O)N[C@@H](CC(N)=O)C(=O)N[C@H](C(=O)N[C@@H](Cc1ccc(O)cc1)C(N)=O)[C@@H](C)O)C(C)C)[C@@H](C)O
B6: Peptide 6 (SEQ ID NO: 6) (peptide)
peptide: K([AEEA-AEEA-γGlu-C18 diacid])CNTATCATQRLANFLVHSSNNFGPILPPTNVGSNTY-NH2
modifications: disulfide 2-7

These binders were tested against T1, human calcitonin receptor (assay: cell-based or functional assay).

Binder	EC50 (cAMP production) [nM]
B1	2.95
B2	3.6
B3	1.96
B4	6.39
B5	10.4
B6	0.31

What follows are binders tested against T2, human amylin receptor (calcitonin …) (assay: cell-based or functional assay).

Binder	EC50 (cAMP production) [nM]	Ratio (EC50 hCTR / EC50 hAMYR3)
B1	0.47	6
B2	0.174	21
B3	0.249	8
B4	0.331	19
B5	1.05	10
B6	0.068	5
